Assay: soluble on expression in E. coli; label from the status in PepcDB or PDB records

Row | Sequence | soluble on expression in E. coli
1 | MGSDKIHHHHHHMNKNMIKGMIVFAAIAEKGSMSAAAQQLNLSSSAVSQQVTKLEMDMGISLFHRNTRNLTLTEAGSLFYENCRKVIAIVESTEQKLNNLKGIPSGELKIAAPIGFGGGLLSEPFNYLLAAHPQISLNLLLQDGPIDIVNEGIDLAICIGPLSDSNLIARHLADWRMLLCASPDYLPMHKIFKHPAELAAFNRINHPCANSETLTHVRNKECFELTSQRITVNNMQALIQLTLDGLGFAALPEPEVHKYLESGQLVTLLPEWSLNTYSVYSVTSARDKQPAKVKEALNTLSQYFSQANFNPAYHFKQCVQKDGTKGSVTNILPIKPKQASHHADVDHAS | not soluble
2 | MGSDKIHHHHHHMNKNNQYVLSLACQDAPGIVSEVSTFLFNNGANIVEAEQFNDEDSSKFFMRVSVEIPVAGVNDFNSAFGKVVEKYNAEWWFRPRTDRKKVVIMVSKFDHCLGDLLYRHRLGELDMEVVGIISNHPREALSVSLVGDIPFHYLPVTPATKAAQESQIKNIVTQSQADLIVLARYMQILSDDLSAFLSGRCINIHHSFLPGFKGAKPYHQAHTRGVKLIGATAHFVTADLDEGPIIAQDVEHVSHRDSAEDLVRKGRDIERRVLSRAVLLFLEDRLIVNGERTVVFAD | not soluble
3 | MGSDKIHHHHHHMNKPLDKQLAELDIFSLLLFRAIFETGHANIAARQLDVSAPKVSRALASLRLIFADELFYRRQQGFRPTPLAEQIYPAIRELTDSINLLGMQLKDHQAFHRQECQVFDLAVSSGILTTLALEFNRREGLCPSVVLHHWQENTADRIHAGELDLGLALAPEPHTELSYERLCDAPGLCLVGAANHPIWQYTDICLEHICEYPFLCMNYPGFNDKVDPLELFCHREGLIPPTVLRVTDKEEWFGHLLCQHSLAFASPLEWGLLNALPGVEIKHLPAKEISRLHSGSAVPGLYLIEKPAHHRRYSPDDREKLLHIISLTLGLVTEDHPVNFSI | not soluble
4 | MGSDKIHHHHHHMNKTDIAQDTINAAVWTACDTFRGTVDPSVYKDYVLTMLFLKYVSDVWQDHYDDYKTKHGNKPGLIEELLKNERFVLPHRANFYTLYDQRHRPGNGERIDTALHAIEDANLGKLRDVFQDISFNANKLGEEQQKNDLLRHLLEDFAKPALNLRPSRIGQLDIIGNAYEYLIKNFASSSGKKAGEFYTPPEVSALMARLMDPQQGDEICDPTCGSGSLLLKCGRLIRERTGSGKYALYGQEAIGSTWALAKMNMFLHGEDNHRIEWGDTIRNPKLLAGNHLKHFDIVVANPPFSLEKWGHDSADTDPHDRFRRGLPPRTKGDYAFILHMIATMKPRTGRMAVVVPHGVLFRGAAEGRIRQKLIEENLLDVVIGLPEKLFYGTGIPAAVLVFRTKKKDKKVLFIDASRQYQDGKNQNLLRESDLQRILDTVQARQNVDKYAYLASPDEIAGHDYNLNIPRYVDTFEEEAEIDLMAVRREREQLKGELATLEMQMAAYLKELGYE | not soluble
5 | MGSDKIHHHHHHMNKTMWSIGFQKHLPINEEASLFRFETAVPQPEGRDLLVKVDAVSVNPIDVAVRKNGTETLDEPKVIGWDAVGTVIAKGASAGYFEIGDRVFYAGSFKRAGSDSEYQLVDERVVGHAPEKLSNAEAAAMPLTSLTAWEALFEQLEIDREDVQGNADKSILIINGAGGVGSIATQLAQKAGLHVIASASRPETIEWCLKHGADETVNHRNNLIDEVRNLGHQYVDYILELNNIDAHWDEMVELIKPNGRMTSITQNHEPVDLKALKHKRVTFAWEWMYTKSYYETPDMETQHVYLDEIARLLDAGELISTLTKQLSPINVENLKQAHKLVEGNHMMGKVVVENLED | not soluble
6 | MGSDKIHHHHHHMNLVEISDIDKEILMKLEYEFPFDPQPFNIISDGLKISEEELLNRVKKLLEDGIIKRIGMYVSFRAKGMDGALIAARIPQDKIEKFRKIALGIRELTHNYVRDHPKFNIWFVLKANDRDTLNENVKELLSHVESNDYVILYSKKTLKLSVKYDVIRGVSWSPNNTIRSLSKVPTAEELGINKQLLTELSYPLKISQRPFKEIAEKYKMKEDELVELIKELYDKNVIKDYGATLNGEKIGIVENGMVLLDTSNVEQACEKLALNIPEATHVVLRESNDENWKYLCYSMIHASKKETIRNVAKEISKETNSRSYMILFSLENLKPGIVI | not soluble
7 | MGSDKIHHHHHHMNLWDKKAKTYARYQNTLNTIQKQTFEYLQNLKISFQDKSIIDIGCGTGVWTLHLAKEAKEILALDSANAMLEILQEDAKKLNLNNIKCKNLSFETWMQNNPNVKFDLAFLSMSPALQNEKDYTNFLNLAKIKIYLGWADYRKSDFLDPIFKYFNTEFKGFYKKDLENYLLEKNIFFHKIVFDETRKVQRTKEEAIENALWHLSMNKITASKETVSSFVENNITETIESKIKLLIINNL | not soluble
8 | MGSDKIHHHHHHMNNINDSSAIHITPETFVKQIRSLGRYNFPEPALVDPDGIGIVGIGGNLAPETLISAYAQGLFPWFNDDEPIAWWCPEPRCVMQPTDYQPSKSLRKQANNARWQLTLNQAFNEVIHACSLPRSNGLPEGEHTWIHDDMIEAYNELHAQGFAHSVEVWDDQGQLVGGLYGLKIGSIYFGESMFHIASNASKLAFWGLMRLCTQSNVTLVDCQLPNEHLMSLGAITLSRTEFLTQLDTLISNGSDAWHKNSHRPLAVSLLGNLQPWQLNP | not soluble
9 | MGSDKIHHHHHHMNNLIVTPGYASQFSCIGSACEDSCCHDWTIIFDKKSYKNTLNHPKLASLAKEAFIETKTDANQWAQIKLNANGTCPFVNEQQLCAIHAAAGETALSHTCKTYPRINNVIATTKYESLSLSCPEAARLVLFDANAFQFEAKSGGAKRPTAANPAWLEKTYDYSLDLLINMGVDWQQALMAIGLLVKVSDQVRQNALPIAQIDQRFEQLILLAQTKEITAQYQKIPYTPQPQTHAFVSIHDQLCKLHSRSLKPRFTSLNEAIGLLCNEGNQYQIDHLNKAWEEKALPALSNYQDLFDRYILYSLYHEHFPMIHSQQPWMAFRLLVIDCFMIRCYLSAMAFKNNGLTESDIVLCFQLYSVVRQHKAKFAEGINQTLQECGIDSIPAAISLLKTS | not soluble
10 | MGSDKIHHHHHHMNPVTHKAVLLLRPGKSPDDFTQQLRKTGRECFVHSFIEIEPLPVNKEQLTQIKQKHWDGIVIVSKNAAHYASRAGFSGVPSKYYAVGPGTASFACKHLNTAVSCPAFIHQSEGLLELSELQKLQQQNWLIIRGEGGRELLADAIRARGASVDYWEVYRRKQLTLNDPELIQQWISSVGTIVVTSAEQLGYFLSSMPNSAQSWLDSCQWIVPSHRLKGLIPFGQSDNIKVTGSAADAILMNALIADGKTHD | not soluble
11 | MGSDKIHHHHHHMNQNRIPLYEALIEFKERRPLSFHVPGHKNGLNFPQGAVEEFKDILSIDVTELSGLDDLHSPFECIDEAQQLLADVYEVEKSYFLINGSTVGNLAMILSCCREHDIVLVQRNCHKSIINGLKLAGANPIFLDSWIDEAYNVPVGIHDEIIKEAIEKYPNAKALILTHPNYYGMGMDLEASIAYAHAHKIPVLVDEAHGAHFCLGGAFPKSALAYGADIVVHSAHKTLPAMTMGSYLHINSRLVKEERVSTYLSMLQSSSPSYPIMASLDIARFTIARIKEKGHDEIVEFLREFKEELSSIPQIAILQYPLQDELKVTVQTRCQLSGYELQSVLEKVGIYTEMADPYNVLFILPLQVNKTYMKAVEMIRAALQSYEVKDKTESIRYTYKGEISPLPYTYKQLEGYETKVVSVEEAVGMIAAEMVIPYPPGIPLIMYGERITSEHKEQIMHLERAGARFQGSTKYMKVYDIESRF | not soluble
12 | MGSDKIHHHHHHMNREFYGKIIISGEIEAVTGLHIGSQREVSEIGGIDNPVIKDPHTGLPYIPGSSLKGRLRSLFEIYVNTRLDELKSKYSSLSNYSKGSCRDVGKENCGKFFNKKLNNVWIHVCSTYEMARNCPVCRLYGSSGKESNFPSRLIVRDAFLTEEWKKKWENGEAITEAKIEVGIDRVTSQANPRTTERVVAGTRFDFEIIYTIEDLKEWKDDLRNLLTSMLLLEDSYLGGSGSRGYGKVRFHVKGLELRPLEYYRTGDEGKIVKKTEYERVEDLLKNFETITSEFDRRVGGIEG | not soluble
13 | MGSDKIHHHHHHMNSLPTESPQSKKSLPSTSMLAAFDAAARTGSFTAAAKDLALTQGAISRQVNALEMQISVNLFHRHKQNISLTEAGKTYAKEVNSALSHIRSATLNLMTNPDGGILNIAILPTFGSRWLMPRLADFLAKHPRITINTVCKLSQFDFSHEDIHCAIHFGKADWSQANCTFLMAEESVPVCSPKLFEQAELAKVDNVCARLINLPLLHIATRPNAWQHWFDEHNVDSTTKEQPKKKTLQDMHFEQFSIVTNAAVAGLGVALLPKFLVESELQRGELQVICNKPQRTDNGYYLVTPNDKLNYAPMVAFTRWLSQVIKSEKPSILNK | not soluble
14 | MGSDKIHHHHHHMNSPAMSPNTLGIDFGTSNSAAGLAVAGRPWLVELEPGETTLPTAVFFDSDSKKMRIGRSATRALIEGEEGRFMRALKSLLGTSLLYEKRRLGGVTMDFTDVIAHFLREVKTRAETATRMEFTHALSGRPVKFHSKDETRNARAEEDLRHCYKKAGFQDVTFMYEPEAALRAARPHPGIGLVVDIGGGTSDFTCFEQDATGGTRILASHGLRLGGTDFDRQISIDHVMPHLGRGAMIRNSFGEGSLPAPNRIFNDLATWQMIPFLYGLDTRRAARDLAQNAEDPTTLNRLVQVLEDELGHDLAFATEAGKIRANGSDDAGAQIDLRLIERGLSAALPRAALEASLAQMVREIQDEAKETLRLADVAPEAVTRCVMVGGSALLMAVRAALQDLCPTAEIETERALTAVADGLALETQDGAA | not soluble
15 | MGSDKIHHHHHHMNTGASAGVCDAFDRGRFRNAIEVFSSRMPAEIRTARASDVDDLAAIEKAVFSSDRISRRSFRLFIERETAETLVAEVDGRVAGYAIVLFRKGSGVARLYSIAVGPFFGALGIGRQLLTAAEEAAFEHDRMMLRLEVREDNSRAIRIYEQAGYRKIGREPGYYEDGATALRYEKTLRGDLPVATRVPFYQQTCEFTCGPCCLMMAMANFDRGFVPDPVMEIRLWREATTVFMMSGPGGCEPFGLAVSGYESGLAAEIFVSFYGALFLQSVRSEDKRRVMELAQVDFRRRAELYGIPVNCRPFTLDDIRTAIAAGKLVLVLISGFLMFGKKVPHWVLAIGDDGDHILIHDPWVEDERQETILDAANIPVPYGIFMNMAQFGRDGLRAAITLGKRDTQ | not soluble
16 | MGSDKIHHHHHHMNTRILNALKQTTLIEEKQKASHCFVEDMPPYAINQELSLKEHGRVLSNYFFKNKDIYISRHNRYADYPTHTHTFLEMNYMLQGHATEIVDDKKITLNTGDLLLLDEGSTHSIKALGDNDLLINILFRTKNISINLLNDLRRSNNIFYDFLLSQVIEDSNHKRDYLVFTKKRNNEVQETLDRIIDEYYLKRDFSNSIIKSYLSILLVQLVREYPLNGPHQENKSSLLAIKVLKAIAEEYKTVSLEELANRYNYNKNYLSNIFKSEVGQTFSEVLTRQRLIQAHTLIASTSLPIATIMEQVGIKNKTFFYQKYKNYYKTLPSTDR | not soluble
17 | MGSDKIHHHHHHMNTTQELHVIFGTGPLAQAVMRELLARNKRVRMINRSGKADIPSSVEIIASDAYNSENTRAVTTGATVVYQCAQPAYTQWPELFPSLQASIVEGVAANGAKLVVGDNLYMYGPVNGVLREDMPNAATTRKGRVRGQMTEALLDAHRRGIVRVAIGRASDFYGPLVLDSVMGDRIFPSVLTGKPASAIGEIDLPHTYTFIDDFGKALVVLGEEDKALGQIWHVPNAETITTRQFITIAFEEAGYPPKISKMGKFMMRLGGIFIPEARETVEMMYEFDEPFVVNHDKYVQAFGNHATPLREAIRHTLKWYSEHLKTLKT | not soluble

— the DeepSol protein solubility set
